Here are results for 2 substances from publication PMC6047533.

The target of test [1] is SHHN-E176A (N-terminal construct of human SHH with E176A, N-lipid containing, C-lipid lacking) (human). The test is described as follows: cross-linking.
In test [2] the target is SHH-E177A (mouse SHH with E177A, expressed from the targeted endogenous locus) (mouse). The test is described as follows: SDS-resistant cross-linked form on Western blot of tissue extract.

Take “SHHN-E176A (N-terminal construct of human SHH with E176A, N-lipid containing, C-lipid lacking) (domain or fragment)”: the stoichiometry N in test [1] came to 2.

In test [2], “SHH-E177A (mouse SHH with E177A, expressed from the targeted endogenous locus) (natural protein)” displayed a stoichiometry N of 2.
